Measurements: patent publication US20070161569A1 (GENERAL HOSPITAL, published 2007)
Non-standard residues stand in square brackets, D forms with d. No end group written: not given here. hArg = N=C(N)NCCCC[C@H](N)C(=O)O; Ac5c = NC1(C(=O)O)CCCC1; Deg = CCC(N)(CC)C(=O)O; Ac3c = NC1(C(=O)O)CC1; Aib = CC(C)(N)C(=O)O

How the values were obtained:
[1] = biological target: T1, P1R-delNt, a recombinant human PTH-1 receptor construct in which most of the amino-terminal extracellular … (human, UniProt Q03431 23-593, limits assumed); assay: cell-based or functional assay
T1 sequence (looked up): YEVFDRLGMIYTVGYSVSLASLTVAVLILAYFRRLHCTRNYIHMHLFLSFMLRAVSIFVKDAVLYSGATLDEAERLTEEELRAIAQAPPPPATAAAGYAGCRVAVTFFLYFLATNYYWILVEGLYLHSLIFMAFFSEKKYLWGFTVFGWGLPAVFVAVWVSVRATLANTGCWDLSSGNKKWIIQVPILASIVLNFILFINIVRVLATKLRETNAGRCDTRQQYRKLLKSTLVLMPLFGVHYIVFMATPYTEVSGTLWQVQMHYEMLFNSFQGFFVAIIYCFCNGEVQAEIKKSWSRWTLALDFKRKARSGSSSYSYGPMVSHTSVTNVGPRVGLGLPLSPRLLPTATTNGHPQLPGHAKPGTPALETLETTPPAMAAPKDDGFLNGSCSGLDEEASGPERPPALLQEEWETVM

[2] = biological target: T2, recombinant P1R chimera expressed in HKRK-B28 cells (opossum P1R from the N-terminus to the mid region of … (opossum; rat, UniProt P25107 27-288; P25961 295-591, limits assumed); assay: cell-based or functional assay
T2 sequence (P25107 other isoform, or with tags, fused parts or gaps limits assumed): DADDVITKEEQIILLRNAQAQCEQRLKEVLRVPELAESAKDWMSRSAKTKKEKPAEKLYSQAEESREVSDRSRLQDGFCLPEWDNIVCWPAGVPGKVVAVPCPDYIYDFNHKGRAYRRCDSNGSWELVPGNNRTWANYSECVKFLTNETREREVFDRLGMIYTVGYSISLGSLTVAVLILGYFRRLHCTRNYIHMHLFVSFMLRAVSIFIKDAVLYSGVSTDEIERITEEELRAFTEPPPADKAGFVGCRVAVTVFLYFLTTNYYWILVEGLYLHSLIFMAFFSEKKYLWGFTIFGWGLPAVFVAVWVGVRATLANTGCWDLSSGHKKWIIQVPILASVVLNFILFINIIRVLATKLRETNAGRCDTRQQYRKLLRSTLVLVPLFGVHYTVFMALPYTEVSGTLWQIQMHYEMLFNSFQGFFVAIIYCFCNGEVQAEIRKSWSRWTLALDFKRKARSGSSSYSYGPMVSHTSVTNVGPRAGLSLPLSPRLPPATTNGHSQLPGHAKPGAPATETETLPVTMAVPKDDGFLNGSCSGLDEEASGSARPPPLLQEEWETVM

[3] = biological target: T3, wild-type human P1R transiently expressed in COS-7 cells (human, UniProt Q03431 27-593); assay: cell-based or functional assay
T3 sequence (looked up): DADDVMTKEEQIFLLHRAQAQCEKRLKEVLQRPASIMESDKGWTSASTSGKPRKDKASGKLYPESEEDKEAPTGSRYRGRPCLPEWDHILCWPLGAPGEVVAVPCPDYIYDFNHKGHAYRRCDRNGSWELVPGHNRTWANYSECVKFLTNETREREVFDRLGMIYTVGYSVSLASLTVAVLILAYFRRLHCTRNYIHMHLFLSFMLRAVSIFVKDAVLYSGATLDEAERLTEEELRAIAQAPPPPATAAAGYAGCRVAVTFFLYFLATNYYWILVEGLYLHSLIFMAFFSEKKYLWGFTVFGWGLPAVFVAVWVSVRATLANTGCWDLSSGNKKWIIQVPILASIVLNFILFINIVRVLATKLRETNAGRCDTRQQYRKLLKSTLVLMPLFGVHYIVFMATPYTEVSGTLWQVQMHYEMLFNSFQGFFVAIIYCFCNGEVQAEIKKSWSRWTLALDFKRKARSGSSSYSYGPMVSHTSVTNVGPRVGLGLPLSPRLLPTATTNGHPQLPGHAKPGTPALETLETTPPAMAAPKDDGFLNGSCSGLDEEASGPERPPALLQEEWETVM

[4] = biological target: T2, recombinant P1R chimera expressed in …; assay: competition binding on B28 cells against 125I-PTH(1-21) tracer (SEQ ID NO 36)
Experimental: (§1) Competition Binding. Binding reactions were performed with HKRK-B28 cells or in COS-7 cells in 24-well plates. The cells were rinsed with 0.5 mL of binding buffer, and then treated successively with 100 μL binding buffer, 100 μL of binding buffer containing various amounts of unlabeled competitor ligand, and 100 μL of binding buffer containing ca. 100,000 cpm of ¹²⁵I-[Aib^{1,3},Nle⁸,Gln¹⁰,Har¹¹,Ala¹²,Trp¹⁴,Arg¹⁹,Tyr²¹]rPTH(1-21) (SEQ. ID. NO. 36) (ca. 26 fmol; final volume=300 μL). Incubations were 4 to 6 h at 4° C., at which time near equilibrium conditions were attained. Cells were then placed on ice, the binding medium was removed, and the monolayer was rinsed three times with 0.5 mL of cold binding buffer. The cells were subsequently lysed with 0.5 mL 5N NaOH and counted for radioactivity. For each tracer and in each experiment, the non-specific binding was determined as the radioactivity that bound in the presence of the same unlabeled peptide at a concentration of 1 μM, and was ˜1% of total radioactivity added for each tracer. The maximum specific binding (B₀) was the total radioactivity bound in the absence of competing ligand, corrected for nonspecific binding, and for each tracer, ranged from 8% to 20% of the total radioactivity added. Nonlinear regression was used to calculate binding IC₅₀ values (see below). Scatchard transformations of homologous competition binding data derived from studies with 26 fmol of ¹²⁵I-[Aib^{1,3},Nle⁸,Gln¹⁰,Har¹¹,Ala¹²,Trp¹⁴, Arg¹⁹,Tyr²¹]rPTH(1-21) (SEQ. ID. NO. 36) were employed for estimations of apparent equilibrium dissociation constant (kDapps) and total number of ligand binding sites (Bₘₐₓ), assuming a single class of binding sites and equal affinities of the iodinated and non iodinated ligand.

[5] = biological target: T2, recombinant P1R chimera expressed in …; assay: competition binding on HKRK-B28 cells against 125I-PTH(1-21) tracer (SEQ ID NO 36)
Experimental: as §1, with “Incubations” for “Competition Binding. Binding reactions were performed with HKRK-B28 cells or in COS-7 cells in 24-well plates. The cells were rinsed with 0.5 mL of binding buffer, and then treated successively with 100 μL binding buffer, 100 μL of binding buffer containing various amounts of unlabeled competitor ligand, and 100 μL of binding buffer containing ca. 100,000 cpm of ¹²⁵I-[Aib^{1,3},Nle⁸,Gln¹⁰,Har¹¹,Ala¹²,Trp¹⁴,Arg¹⁹,Tyr²¹]rPTH(1-21) (SEQ. ID. NO. 36) (ca. 26 fmol; final volume=300 μL). Incubations”, “ligand. […]” for “ligand.”

[6] = biological target: T2, recombinant P1R chimera expressed in …; assay: competition binding to the P1R (HKRK-B28 cells by the FIG. 3 legend)
Experimental: as §1, with “Scatchard transformations of homologous competition binding data derived from studies with 26 fmol of ¹²⁵I-[Aib^{1,3},Nle⁸,Gln¹⁰,Har¹¹,Ala¹²,Trp¹⁴, Arg¹⁹,Tyr²¹]rPTH(1-21) (SEQ. ID. NO. 36) were employed for estimations of apparent equilibrium dissociation constant (kDapps) and total number of ligand binding sites (Bₘₐₓ), assuming a single class of binding sites and equal affinities of the iodinated and non iodinated ligand.” left out

[Ac5c]V[Aib]EIQLMHQ[hArg]AKW-NH2 (also called [Ac5c^1,Aib^3,M]PTH(1-14)) [[Ac5c^1,Aib^3,Gln^10,Har^11,Ala^12,Trp^14]PTH(1-14)NH2]
cAMP EC50 in LdelNt-2 cells [1]: 6.4 nM | increase in cAMP accumulation in LdelNt-2 cells [1]: 70 fold | cAMP potency (EC50) [2]: 0.9 nM | increase in cAMP levels relative to basal, peptide at 10 nM, HKRK-B28 cells [2]: 38 fold | stimulating adenylyl cyclase, fold more potent than [Aib^1,3,M]PTH(1-14) [2]: 2 fold | stimulating phospholipase C, fold more potent than [Aib^1,3,M]PTH(1-14) [3]: 2 fold | IC50 [4]: 100 nM | fold more potent than [Aib^1,3,M]PTH(1-14) for inhibiting tracer binding [4]: 2 fold

B1: [M]PTH(1-14) analog in which alanine-3 is substituted with 1-aminocyclopropane-1-carboxylic acid (Ac3c) (peptide)
peptide: AV[Ac3c]EIQLMHQ[hArg]AKW-NH2
modifications: N-terminus assumed
SMILES: CC[C@H](C)[C@H](NC(=O)[C@H](CCC(=O)O)NC(=O)C1(NC(=O)[C@@H](NC(=O)[C@H](C)N)C(C)C)CC1)C(=O)N[C@@H](CCC(N)=O)C(=O)N[C@@H](CC(C)C)C(=O)N[C@@H](CCSC)C(=O)N[C@@H](Cc1c[nH]cn1)C(=O)N[C@@H](CCC(N)=O)C(=O)N[C@@H](CCCCNC(=N)N)C(=O)N[C@@H](C)C(=O)N[C@@H](CCCCN)C(=O)N[C@@H](Cc1c[nH]c2ccccc12)C(N)=O
notes: also called Ac3c^3-containing analog; Ac3c-3
fold reduced affinity relative to the parent analog [5]: ~10 fold | cAMP-stimulating potency, fold increase over the parent analog [2]: < 2 fold | fold lower affinity than [M]PTH(1-14) [4]: 14 fold

B2: [Deg^1,3,Gln^10,Har^11,Ala^12,Trp^14]PTH(1-14)NH2 (peptide)
peptide: [Deg]V[Deg]EIQLMHQ[hArg]AKW-NH2
modifications: N-terminus assumed
SMILES: CC[C@H](C)[C@H](NC(=O)[C@H](CCC(=O)O)NC(=O)C(CC)(CC)NC(=O)[C@@H](NC(=O)C(N)(CC)CC)C(C)C)C(=O)N[C@@H](CCC(N)=O)C(=O)N[C@@H](CC(C)C)C(=O)N[C@@H](CCSC)C(=O)N[C@@H](Cc1c[nH]cn1)C(=O)N[C@@H](CCC(N)=O)C(=O)N[C@@H](CCCCNC(=N)N)C(=O)N[C@@H](C)C(=O)N[C@@H](CCCCN)C(=O)N[C@@H](Cc1c[nH]c2ccccc12)C(N)=O
notes: also called [Deg^1,3,M]PTH(1-14)
cAMP EC50 in LdelNt-2 cells [1]: 1400 nM | cAMP Emax over basal in LdelNt-2 cells (partial agonist behavior) [1]: 23 fold | fold higher affinity than the parent peptide [6]: 50 fold

B3: [Ala^1,3,12,Gln^10,Har^11,Trp^14]PTH(1-14)NH2 (peptide)
peptide: AVAEIQLMHQ[hArg]AKW-NH2
modifications: N-terminus assumed
SMILES: CC[C@H](C)[C@H](NC(=O)[C@H](CCC(=O)O)NC(=O)[C@H](C)NC(=O)[C@@H](NC(=O)[C@H](C)N)C(C)C)C(=O)N[C@@H](CCC(N)=O)C(=O)N[C@@H](CC(C)C)C(=O)N[C@@H](CCSC)C(=O)N[C@@H](Cc1c[nH]cn1)C(=O)N[C@@H](CCC(N)=O)C(=O)N[C@@H](CCCCNC(=N)N)C(=O)N[C@@H](C)C(=O)N[C@@H](CCCCN)C(=O)N[C@@H](Cc1c[nH]c2ccccc12)C(N)=O
notes: also called [M]PTH(1-14); parent
IC50 [5]: 27 µM | cAMP accumulation potency (EC50) in HKRK-B28 cells [2]: 220 nM | cAMP potency (EC50) [2]: 200 nM | IC50 [4]: ~3000 nM

[Ac5c]V[Ac5c]EIQLMHQ[hArg]AKW-NH2 (also called [Ac5c^1,3,M]PTH(1-14)) [[Ac5c^1,3,Gln^10,Har^11,Ala^12,Trp^14]PTH(1-14)NH2]
cAMP signaling, fold more potent than the parent peptide [2]: 30 fold | fold higher affinity than the parent peptide [6]: 20 fold
